Laboratory results: patent US20250145711A1 (Janssen / Centocor, published 2025)

Tests used:
[1] = target: T1, TRCW5 antigen (CD3δε-Fc-Avi) (biotinylated (site not stated)); assay: ELISA
T1 construct: also called recombinant CD3

[2] = target: T1, TRCW5 antigen (CD3δε-Fc-Avi); assay: ELISA after heat
[3] = target: T2, CD3 on primary human pan T cells (human, UniProt P07766 23-207); assay: flow cytometry, pan T-cells
T2 construct: on cells it stands in the TCR/CD3 complex; also called Pan T-cells (CD3-positive); endogenous CD3
T2 sequence (P07766 23-207 limits assumed): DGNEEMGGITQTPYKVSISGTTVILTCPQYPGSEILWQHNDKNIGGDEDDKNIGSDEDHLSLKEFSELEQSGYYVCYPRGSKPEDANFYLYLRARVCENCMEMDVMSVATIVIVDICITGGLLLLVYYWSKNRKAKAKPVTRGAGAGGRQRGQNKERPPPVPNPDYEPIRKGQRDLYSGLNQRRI
Description: ELISA assays for binding to recombinant CD3 (TRCW5, SEQ ID NO: 39) were performed as above. Cell binding was performed using primary human T cell and Jurkat cells by flow cytometry. Briefly, E. coli expressed anti CD3 ScFv supernatants, either at room temperature, or 55° C., 60° C. or 65° C. heat treated samples.
Pan T-cells (CD3-positive) and Jurkat-CD3-negative cells were prepared by staining Jurkat-CD3-negative cells with CFSE while keeping pan T-cells unstained. Jurkat-CD3-negative cell suspensions were resuspended at 20 million cells per each 50 mL conical tube. Cells were harvested by centrifugation at 400×g for 5 minutes and resuspended in DPBS followed by washing 2× in DPBS. Cells were stained with 1:25,000 dilution for a final dye concentration of 0.02 uM CFSE (2 uL of staining solution to 50 mL of cell suspension). Cells were incubated for 10 minutes at room temperature and centrifuged for 5 minutes at 400×g. After removal of supernatant, 3 mL of HI-FBS were added to the cell pellet, mixed and centrifuged for 5 min at 400×g. Supernatant was removed and cells were resuspended in BD stain buffer at 2×10\hat{ }6 cells/mL and incubated on ice or 4 C protected from light. Human pan T cells were thawed at 37 C and transferred gently into a conical tube containing 15 mL of warm or RT culture media (RPMI+10% FBS). […] Cells were harvested by centrifugation at 400×g for 5 min and resuspended in culture media (RPMI+10% HI-FBS). Pan T-cells (without staining) were prepared at 2×10\hat{ }6 cells/mL in flow staining buffer. Equal volumes of CFSE stained Jurkat-CD3-negative cells and unstained T-cells (CD3-positive) cells were mixed and plated 50 uL/well into assay plates. 50 uL/well neat bacterial supernatant samples and control sample (CD3W36 ScFv) were added to each well and plates were incubated 1 hr at 4 C or. Cells were harvested by centrifugation at 400×g for 4 min and 150 uL staining buffer were added to all wells, followed by centrifugation at 400×g for 4 min to pellet cells. To each well, 150 uL staining buffer were added followed by centrifugation at 400×g for 4 minutes to pellet cells.

T1 sequence (chain, as listed by the source mutant limits assumed): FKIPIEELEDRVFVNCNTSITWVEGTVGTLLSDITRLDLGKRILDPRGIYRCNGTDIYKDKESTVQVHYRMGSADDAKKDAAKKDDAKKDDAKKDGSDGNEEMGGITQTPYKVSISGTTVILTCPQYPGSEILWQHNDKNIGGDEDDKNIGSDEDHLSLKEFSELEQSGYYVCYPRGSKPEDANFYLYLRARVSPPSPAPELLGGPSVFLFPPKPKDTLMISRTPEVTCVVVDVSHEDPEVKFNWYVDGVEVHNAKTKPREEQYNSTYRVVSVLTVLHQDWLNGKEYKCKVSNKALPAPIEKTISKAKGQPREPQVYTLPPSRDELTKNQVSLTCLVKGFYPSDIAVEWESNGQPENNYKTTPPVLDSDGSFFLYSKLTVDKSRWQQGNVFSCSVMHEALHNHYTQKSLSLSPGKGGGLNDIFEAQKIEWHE

B1: CD3B2030 N106I (scFv)
scFv: QVQLVQSGAEVKKPGSSVKVSCKASGYTFTRSTMHWVKQAPGQGLEWIGYINPSSAYTNYNQKFQGRVTLTADKSTSTAYMELSSLRSEDTAVYYCASPQVHYDYIGFPYWGQGTLVTVSSGGSEGKSSGSGSESKSTGGSEIVLTQSPATLSASPGERVTLSCSASSSVSYMNWYQQKPGQAPRRWIYDSSKLASGVPARFSGSGSGRDYTLTISSLEPEDFAVYYCQQWSRNPPTFGGGTKVEIK
EC50 [1]: ~13.3 nM

B2: CD3B2085 (scFv)
scFv: QVQLVQSGAEVKKPGSSVKVSCKASGYTFTRSTMHWVRQAPGQGLEWMGYINPSSAYTNYAQKFQGRVTLTADKSTSTAYMELSSLRSEDTAVYYCASPQVHYDYNGFPYWGQGTLVTVSSGGSEGKSSGSGSESKSTGGSEIVLTQSPATLSASPGERVTLSCSASSSVSYMNWYQQKPGTAPRRWIYDSSKLASGVPARFSGSGSGRDYTLTISSLEPEDFAVYYCQQWSRNPPTFGGGTKVEIK
% Retained 55° C. [2]: 112%
% Retained 60° C. [2]: 117%
% Retained 65° C. [2]: 18%
% Binding retained on T-cells, 55° C. [3]: 1.01 fraction
% Binding retained on T-cells, 60° C. [3]: 0.411 fraction
% Binding retained on T-cells, 65° C. [3]: 0.385 fraction
% Binding retained on T-cells, RT [3]: 1 fraction

B3: CD3B2081 (scFv)
scFv: QVQLVQSGAEVKKPGSSVKVSCKASGYTFTRSTMHWVRQAPGQGLEWIGYINPSSAYTNYAQKFQGRVTLTADKSTSTAYMELSSLRSEDTAVYYCASPQVHYDYNGFPYWGQGTLVTVSSGGSEGKSSGSGSESKSTGGSEIVLTQSPATLSASPGERVTLSCSASSSVSYMNWYQQKPGQAPRRWIYDSSKLASGVPARFSGSGSGRDYTLTISSLEPEDFAVYYCQQWSRNPPTFGGGTKVEIK
% Retained 55° C. [2]: 112%
% Retained 60° C. [2]: 114%
% Retained 65° C. [2]: 38%
% Binding retained on T-cells, 55° C. [3]: 1.04 fraction
% Binding retained on T-cells, 60° C. [3]: 1.2 fraction
% Binding retained on T-cells, 65° C. [3]: 0.102 fraction
% Binding retained on T-cells, RT [3]: 1 fraction

B4: CD3B2078 (scFv)
scFv: QVQLVQSGAEVKKPGSSVKVSCKASGYTFTRSTMHWVRQAPGQGLEWIGYINPSSAYTNYAQKFQGRVTLTADKSTSTAYMELSSLRSEDTAVYYCASPQVHYDYNGFPYWGQGTLVTVSSGGSEGKSSGSGSESKSTGGSEIVLTQSPATLSASPGERVTLSCSASSSVSYMNWYQQKPGTSPRRLIYDSSKLASGVPARFSGSGSGRDYTLTISSLEPEDFAVYYCQQWSRNPPTFGGGTKVEIK
% Retained 55° C. [2]: 107%
% Retained 60° C. [2]: 88%
% Retained 65° C. [2]: 2%
% Binding retained on T-cells, 55° C. [3]: 1.01 fraction
% Binding retained on T-cells, 60° C. [3]: 0.762 fraction
% Binding retained on T-cells, 65° C. [3]: 0.0574 fraction
% Binding retained on T-cells, RT [3]: 1 fraction

B5: CD3B2077 (scFv)
scFv: QVQLVQSGAEVKKPGSSVKVSCKASGYTFTRSTMHWVRQAPGQGLEWIGYINPSSAYTNYAQKFQGRVTLTADKSTSTAYMELSSLRSEDTAVYYCASPQVHYDYNGFPYWGQGTLVTVSSGGSEGKSSGSGSESKSTGGSEIVLTQSPATLSASPGERVTLSCSASSSVSYMNWYQQKPGTAPRRWIYDSSKLASGVPARFSGSGSGRDYTLTISSLEPEDFAVYYCQQWSRNPPTFGGGTKVEIK
% Retained 55° C. [2]: 106%
% Retained 60° C. [2]: 107%
% Retained 65° C. [2]: 22%
% Binding retained on T-cells, 55° C. [3]: 1.03 fraction
% Binding retained on T-cells, 60° C. [3]: 1.1 fraction
% Binding retained on T-cells, 65° C. [3]: 0.307 fraction
% Binding retained on T-cells, RT [3]: 1 fraction

B6: CD3B2086 (scFv)
scFv: QVQLVQSGAEVKKPGSSVKVSCKASGYTFTRSTMHWVRQAPGQGLEWMGYINPSSAYTNYAQKFQGRVTLTADKSTSTAYMELSSLRSEDTAVYYCASPQVHYDYNGFPYWGQGTLVTVSSGGSEGKSSGSGSESKSTGGSEIVLTQSPATLSASPGERVTLSCSASSSVSYMNWYQQKPGTSPRRLIYDSSKLASGVPARFSGSGSGRDYTLTISSLEPEDFAVYYCQQWSRNPPTFGGGTKVEIK
% Retained 55° C. [2]: 104%
% Retained 60° C. [2]: 96%
% Retained 65° C. [2]: 5%
% Binding retained on T-cells, 55° C. [3]: 1.01 fraction
% Binding retained on T-cells, 60° C. [3]: 1.12 fraction
% Binding retained on T-cells, 65° C. [3]: 0.0404 fraction
% Binding retained on T-cells, RT [3]: 1 fraction

B7: CD3B2079 (scFv)
scFv: QVQLVQSGAEVKKPGSSVKVSCKASGYTFTRSTMHWVRQAPGQGLEWIGYINPSSAYTNYAQKFQGRVTLTADKSTSTAYMELSSLRSEDTAVYYCASPQVHYDYNGFPYWGQGTLVTVSSGGSEGKSSGSGSESKSTGGSEIVLTQSPATLSASPGERVTLSCSASSSVSYMNWYQQKPGTAPRRLIYDSSKLASGVPARFSGSGSGRDYTLTISSLEPEDFAVYYCQQWSRNPPTFGGGTKVEIK
% Retained 55° C. [2]: 111%
% Retained 60° C. [2]: 92%
% Retained 65° C. [2]: 2%
% Binding retained on T-cells, 55° C. [3]: 1.06 fraction
% Binding retained on T-cells, 60° C. [3]: 0.979 fraction
% Binding retained on T-cells, 65° C. [3]: 0.116 fraction
% Binding retained on T-cells, RT [3]: 1 fraction

B8: CD3B2087 (scFv)
scFv: QVQLVQSGAEVKKPGSSVKVSCKASGYTFTRSTMHWVRQAPGQGLEWMGYINPSSAYTNYAQKFQGRVTLTADKSTSTAYMELSSLRSEDTAVYYCASPQVHYDYNGFPYWGQGTLVTVSSGGSEGKSSGSGSESKSTGGSEIVLTQSPATLSASPGERVTLSCSASSSVSYMNWYQQKPGTAPRRLIYDSSKLASGVPARFSGSGSGRDYTLTISSLEPEDFAVYYCQQWSRNPPTFGGGTKVEIK
% Retained 55° C. [2]: 104%
% Retained 60° C. [2]: 94%
% Retained 65° C. [2]: 5%
% Binding retained on T-cells, 55° C. [3]: 1.02 fraction
% Binding retained on T-cells, 60° C. [3]: 0.964 fraction
% Binding retained on T-cells, 65° C. [3]: 0.105 fraction
% Binding retained on T-cells, RT [3]: 1 fraction

B9: CD3B2082 (scFv)
scFv: QVQLVQSGAEVKKPGSSVKVSCKASGYTFTRSTMHWVRQAPGQGLEWMGYINPSSAYTNYAQKFQGRVTLTADKSTSTAYMELSSLRSEDTAVYYCASPQVHYDYNGFPYWGQGTLVTVSSGGSEGKSSGSGSESKSTGGSEIVLTQSPATLSASPGERVTLSCSASSSVSYMNWYQQKPGTSPRRWIYDSSKLASGVPARFSGSGSGRDYTLTISSLEPEDFAVYYCQQWSRNPPTFGGGTKVEIK
% Retained 55° C. [2]: 114%
% Retained 60° C. [2]: 116%
% Retained 65° C. [2]: 9%
% Binding retained on T-cells, 55° C. [3]: 1.11 fraction
% Binding retained on T-cells, 60° C. [3]: 0.682 fraction
% Binding retained on T-cells, 65° C. [3]: 0.276 fraction
% Binding retained on T-cells, RT [3]: 1 fraction

B10: CD3B2030 N106P (scFv)
scFv: QVQLVQSGAEVKKPGSSVKVSCKASGYTFTRSTMHWVKQAPGQGLEWIGYINPSSAYTNYNQKFQGRVTLTADKSTSTAYMELSSLRSEDTAVYYCASPQVHYDYPGFPYWGQGTLVTVSSGGSEGKSSGSGSESKSTGGSEIVLTQSPATLSASPGERVTLSCSASSSVSYMNWYQQKPGQAPRRWIYDSSKLASGVPARFSGSGSGRDYTLTISSLEPEDFAVYYCQQWSRNPPTFGGGTKVEIK
EC50 [1]: ~24 nM

B11: CD3B2080 (scFv)
scFv: QVQLVQSGAEVKKPGSSVKVSCKASGYTFTRSTMHWVRQAPGQGLEWIGYINPSSAYTNYAQKFQGRVTLTADKSTSTAYMELSSLRSEDTAVYYCASPQVHYDYNGFPYWGQGTLVTVSSGGSEGKSSGSGSESKSTGGSEIVLTQSPATLSASPGERVTLSCSASSSVSYMNWYQQKPGQSPRRWIYDSSKLASGVPARFSGSGSGRDYTLTISSLEPEDFAVYYCQQWSRNPPTFGGGTKVEIK
% Retained 55° C. [2]: 109%
% Retained 60° C. [2]: 108%
% Retained 65° C. [2]: 17%
% Binding retained on T-cells, 55° C. [3]: 1.07 fraction
% Binding retained on T-cells, 60° C. [3]: 1.13 fraction
% Binding retained on T-cells, 65° C. [3]: 0.0573 fraction
% Binding retained on T-cells, RT [3]: 1 fraction

B12: CD3B2089 G107F (scFv)
scFv: QVQLVQSGAEVKKPGSSVKVSCKASGYTFTRSTMHWVRQAPGQGLEWMGYINPSSAYTNYAQKFQGRVTLTADKSTSTAYMELSSLRSEDTAVYYCASPQVHYDYNFFPYWGQGTLVTVSSGGSEGKSSGSGSESKSTGGSEIVLTQSPATLSASPGERVTLSCSASSSVSYMNWYQQKPGQAPRRWIYDSSKLASGVPARFSGSGSGRDYTLTISSLEPEDFAVYYCQQWSRNPPTFGGGTKVEIK
EC50 [1]: 14.4 nM

B13: CD3B2088 (scFv)
scFv: QVQLVQSGAEVKKPGSSVKVSCKASGYTFTRSTMHWVRQAPGQGLEWMGYINPSSAYTNYAQKFQGRVTLTADKSTSTAYMELSSLRSEDTAVYYCASPQVHYDYNGFPYWGQGTLVTVSSGGSEGKSSGSGSESKSTGGSEIVLTQSPATLSASPGERVTLSCSASSSVSYMNWYQQKPGQSPRRWIYDSSKLASGVPARFSGSGSGRDYTLTISSLEPEDFAVYYCQQWSRNPPTFGGGTKVEIK
% Retained 55° C. [2]: 116%
% Retained 60° C. [2]: 114%
% Retained 65° C. [2]: 26%
% Binding retained on T-cells, 55° C. [3]: 1.01 fraction
% Binding retained on T-cells, 60° C. [3]: 0.461 fraction
% Binding retained on T-cells, 65° C. [3]: 0.258 fraction
% Binding retained on T-cells, RT [3]: 1 fraction
